Here are results for one protein from article PMC3517013.

Substrate in data set [1]: O=C(O)CCC(=O)C(=O)O
As to the kind of experiment: purified protein. The following applies: apparent; co-substrate validamycin A, Fe(II). The format is biochemical, Streptomyces hygroscopicus.

Substrate in data set [2]: OCC1=C[C@H](N[C@H]2C[C@H](CO)[C@@H](O[C@@H]3O[C@H](CO)[C@@H](O)[C@H](O)[C@H]3O)[C@H](O)[C@H]2O)[C@H](O)[C@@H](O)[C@@H]1O
Put plainly: purified protein. The format is biochemical, Streptomyces hygroscopicus. The following applies: apparent; co-substrate α-ketoglutarate, Fe(II); hydroxylation at C-6'.

B1: VldW (Streptomyces hygroscopicus subsp. limoneus) (protein)
chain: MTGSVPIVDLEAWRAADEENRASLAEIIDGALHTVGTFLLAGHGVPAELTARMRTAGRSFFDLPWEKKEPHAVQRPHDNGWRGLVKHRTDTIEGTGGAPDLHEAFHMGPTHRTGDDAFDALYYPANKWPAELPELRETALAYTAHMTRVAGAVMEMLAGVLGLEPAFFTSRCEHATWTQSVNWYPSLDTVGQTAEGQMRVGPHTDFGTITLLDRQQGVSGLEVWSEEDGWFAPPFVEGTLLVNLGDLMHQWTDGRWRSLRHRVLAPSASAPQEELVSLVYFFDADPEAELVPLAAPVGGGAGMPTVNVGETILKKNIQMLTDLKGHGLFQGELSLSRPGSADSPGSSPADDHPSRPGRHPAQGPQ
As usually defined, the Km is the concentration of substrate that gives half-maximal velocity. The term kcat denotes the maximal rate divided by the concentration of active sites. Take B1: in the data set “purified protein [1]”, the Km came to 19 ± 3.5 µM and the catalytic constant (kcat) worked out at 0.0162 ± 0.00233 s⁻¹. Moreover, in “purified protein [2]”, the Km was 303 ± 36 µM and the kcat was determined as 0.0162 ± 0.00233 s⁻¹.
